Data taken from the RNAGym collection of RNA variant scans (doi:10.7554/elife.80360).

B1: Hairpin Ribozyme (parent)
chain: GUCCUCUUUCACGUGCGCGUGAAAGAGAGAAGUGAACCAGAGAAACACACGUUGUGGUAUAUUACCUGGUA

Variants of: B1
Assay: self-cleavage, relative activity (ratio to wild type); higher = more cleavage; co-transcriptional

Row | Variant | self-cleavage
1 | GUCCUCUUUCACACGCGCGUGAAAGAGAGAAGUGAACCAGAGAAACACACGUUGUGGUAUAUUACCUGGUA [G13A U14C] | 0.855
2 | GUCCUCUUUCACAUGCGCGUGAGAGAGAGAAGUGAACCAGAGAAACACACGUUGUGGUAUAUUACCUGGUA [G13A A23G] | 0.767
3 | GUCCUCUUUCAUGUGCGCGUGAAAGAGAGAAGUGAACCAGAGAAACACACGUUGUGGUAUAUUACCUUGUA [C12U G68U] | 0.27
4 | GUCCUCUUUCACAUGCGCGUGAAAGAGAGAAGUGAACCAGCGAAACACACGUUGUGGUAUAUUACCUGGUA [G13A A41C] | 1.04
5 | GUCCUCUUUCAUGUGCGCGUGAAAGAGAGAAGUGAACCAGAGAAACACACGUGGUGGUAUAUUACCUGGUA [C12U U53G] | 0.677
6 | GUCCUCUUUCAUGUGCGCGUGAAAGAGAGAAGUGAACCAGAGAAACACACGUAGUGGUAUAUUACCUGGUA [C12U U53A] | 0.974
7 | GUCCUCUUUCACAUGCGCGUUAAAGAGAGAAGUGAACCAGAGAAACACACGUUGUGGUAUAUUACCUGGUA [G13A G21U] | 0.742
8 | GUCCUCUUUCACAUGCGCGUGAAAGAGAGUAGUGAACCAGAGAAACACACGUUGUGGUAUAUUACCUGGUA [G13A A30U] | 0.113
9 | GUCCUCUUUCACAUGCGCGUGAAAGAGAGCAGUGAACCAGAGAAACACACGUUGUGGUAUAUUACCUGGUA [G13A A30C] | 0.0871
10 | GUCCUCUUUCACAUGCGCGUGAAAGAGAGAAGUGAACCAGAGAAACACACGUUGUGGUAUACUACCUGGUA [G13A U62C] | 0.242
11 | GUCCUCUUUCACAUGCGCGUGAAAGAGAGAAGUGAACCAGAGAAACACACGUUGUGGUAUAUUACCUGAUA [G13A G69A] | 0.368
12 | GUCCUCUUUCACAUGCGCGUGAAAGAGAGAAGUGAACCAGAGAAACACACGUUGUGGUAUAUUACCUGUUA [G13A G69U] | 0.24
13 | GUCCUCUUUCACAUGCGCGUGAAAGAGAGAAGUGAACCAGAGAAACACACCUUGUGGUAUAUUACCUGGUA [G13A G51C] | 0.68
14 | GUCCUCUUUCACCUGCGCGUGUAAGAGAGAAGUGAACCAGAGAAACACACGUUGUGGUAUAUUACCUGGUA [G13C A22U] | 0.528
15 | GUCCUCUUUCACAUGCGCGUGAAAGAGCGAAGUGAACCAGAGAAACACACGUUGUGGUAUAUUACCUGGUA [G13A A28C] | 0.258
16 | GUCCUCUUUCACAUGCGCGUGAAAGAGUGAAGUGAACCAGAGAAACACACGUUGUGGUAUAUUACCUGGUA [G13A A28U] | 0.495
17 | GUCCUCUUUCACCUGCGCGUGAAAGAGAGAAGUGAACCAGAGCAACACACGUUGUGGUAUAUUACCUGGUA [G13C A43C] | 0.0516
18 | GUCCUCUUUCACAUGCGCGUGAAAGAGAGAAGUGAACCACAGAAACACACGUUGUGGUAUAUUACCUGGUA [G13A G40C] | 0.152
19 | GUCCUCUUUCACCUGCGCGUGAAAGAGAGGAGUGAACCAGAGAAACACACGUUGUGGUAUAUUACCUGGUA [G13C A30G] | 0.114

Row | Variant | self-cleavage
20 | GUCCUCUUUCACAUGCGCGUGAAAGAGAGAAGUGAACCAGAGAAACACACGUUGAGGUAUAUUACCUGGUA [G13A U55A] | 0.333
21 | GUCCUCUUUCACAUGCGCGUGAAAGAGAGAGGUGAACCAGAGAAACACACGUUGUGGUAUAUUACCUGGUA [G13A A31G] | 0.515
22 | GUCCUCUUUCACAUGCGCGUGAAAGAGAGACGUGAACCAGAGAAACACACGUUGUGGUAUAUUACCUGGUA [G13A A31C] | 0.11
23 | GUCCUCUUUCACAUGCGCGUGAAAGAGAGAAGUGAUCCAGAGAAACACACGUUGUGGUAUAUUACCUGGUA [G13A A36U] | 0.491
24 | GUCCUCUUUCACAUGCGCGUGAAAGAGAGAAGUGAACCAGAGAAACACACGUUGUGGUAUAUAACCUGGUA [G13A U63A] | 0.194
25 | GUCCUCUUUCACAUGCGCGUGAAAGAGAGAAGUGAACCAGAGAAACACACGUAGUGGUAUAUUACCUGGUA [G13A U53A] | 0.856
26 | GUCCUCUUUCACCUGCGCGUGAAAGAGAGAAGUGAACCGGAGAAACACACGUUGUGGUAUAUUACCUGGUA [G13C A39G] | 0.186
27 | GUCCUCUUUCACCUGCGCGUGAAAGAGAGAAGUGAACCCGAGAAACACACGUUGUGGUAUAUUACCUGGUA [G13C A39C] | 0.59
28 | GUCCUCUUUCACCUGCGCGUGAACGAGAGAAGUGAACCAGAGAAACACACGUUGUGGUAUAUUACCUGGUA [G13C A24C] | 0.466
29 | GUCCUCUUUCAUGUGCGCGUGAAAGAGAGAAGAGAACCAGAGAAACACACGUUGUGGUAUAUUACCUGGUA [C12U U33A] | 0.205
30 | GUCCUCUUUCAUGUGCGCGUGAAAGAGAGAAGGGAACCAGAGAAACACACGUUGUGGUAUAUUACCUGGUA [C12U U33G] | 0.207
31 | GUCCUCUUUCACAUACGCGUGAAAGAGAGAAGUGAACCAGAGAAACACACGUUGUGGUAUAUUACCUGGUA [G13A G15A] | 0.839
32 | GUCCUCUUUCACAUGCGCGUGAAAGAGAGAAGUGAACCAGAGAAACACAAGUUGUGGUAUAUUACCUGGUA [G13A C50A] | 0.284
33 | GUCCUCUUUCACAUGCGCGUGAAAGAGAGAAGUGAACCAGAGAAACACACGUUGUUGUAUAUUACCUGGUA [G13A G56U] | 0.137
34 | GUCCUCUUUCACAUGCGCGUGAAAGAGAGAAGUGAACCAGAGAAACACACGUUGUGGUUUAUUACCUGGUA [G13A A59U] | 0.241
35 | GUCCUCUUUCACAUGCGCGUGAAAGAGAGAAGUGAACCAGAGAAACACACGUUGUGGUCUAUUACCUGGUA [G13A A59C] | 0.196
36 | GUCCUCUUUCACAUGCGCGUGAAAGAGAGAAGUGAACCAGAAAAACACACGUUGUGGUAUAUUACCUGGUA [G13A G42A] | 0.194
37 | GUCCUCUUUCACAUGCGCGUGAAAGAGAGAAGUGAACCAGAGAAACACACGUUGUGGAAUAUUACCUGGUA [G13A U58A] | 0.574
38 | GUCCUCUUUCACAUGCGCGUGAAAGAGAGAAGUGAACCAGAGAAACACACGUUGUGGGAUAUUACCUGGUA [G13A U58G] | 0.594
